Reference: the RNAGym collection of RNA variant scans (doi:10.1073/pnas.2313332121)
This sample holds only a part of the variants without activity.

B1: TPR 5TU (parent)
chain: GGAUCUUCUCGAUCUAACAAAAAAGACAAAUCUGCCACAAAGCUUGAGAGCAUCUUCGGAUGCAGAGGCGGCAGCCUUCGGUGGCGCGAUAGCGCCAACGUUCUCAACUAUGACACGCAAAACGCGUGCUCCGUUGAAUGGAGUUUAUCAUG

Variants of: B1
Assay: polymerase ribozyme fitness, log enrichment relative to wild type (log ratio); higher = more active; in vitro selection for triplet polymerase activity
How it was run: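 Mutant libraries for each subunit of a heterodimeric triplet polymerase ribozyme were made by PCR and then transcribed. Each library underwent one round of in vitro selection in triplicate: annealing with a biotinylated primer, the partner subunit and triplets, frozen incubation at −7 °C, gel excision of extended constructs, streptavidin-bead capture and RT-PCR. Input and output libraries were Illumina-sequenced, and only genotypes with ≥10 input reads and ≥1 read per output were kept. Fitness is the logarithm, base 2, of genotype enrichment over wild-type enrichment, computed from inverse-variance-weighted replicate averages.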

Variant	polymerase ribozyme fitness (log ratio)
GGAUCGUCUCAAUCUAACAAAAAAGACAAAUCUGCCACAAAGCUUGAGAGCAUCUUCGGAUGCAGAGGCGGCAGCCUUCGGUGGCGCGAUAGCGCCAACGUUCUCAACUAUGACACGCAAAACGCGUGCUCCGUUGAAUGGAGUUUAUCAUG	-0.786
GGAUCGUCUCGAUCUAACAAAAAAGACAAAUCUGCCACAAAGCUUGAGAGCAUCUUCGGAUGCAGAGGCGGCAGCCUUCGGUCGCGCGAUAGCGCCAACGUUCUCAACUAUGACACGCAAAACGCGUGCUCCGUUGAAUGGAGUUUAUCAUG	-0.223
GGAUCGUCUCGAGCUAACAAAAAAGACAAAUCUGCCACAAUGCUUGAGAGCCUCUUCGGAUGCAGAGGCGGCAGCCUUCGGUGGCGCGAUAGCGCCAACGUUCUCAACUAUGACACGCAAAACGCGUGCUCCUUUGAGUGGAGUUUAGCAUG	≤ -4.2
GGAUCGUCUCGAUCUAACAAAAAAGACAAAUCUGCCACAAAGCUUGAGAGAAUCUUCGGAUGCAGAGGCGGCAGCCUUCGGUCGCGCGAUAGCGCCAACGUUCUCAACUAUGACACGCAAAACGCGUGCUCCGUUGAAUGGAGUUUAUCAUG	-2.97
GGAUCGUCUCGAUCUAACAAAAAAGACAAAUCUGCCAUAAAGCAUGAGAGCAUCUUCGGAUGCAGAGGCGGCAGCCUUCGCUGGCGCGAUAGCGCCAACGUUCUCAACUAUGACACGCACAACGCGUGCUCCGUUGAAUUGAGUUUAUCAUG	≤ -4.2
GGAUCGUCUCGAUCUAACAAAAAAGACAAAUCUGUCACAAAGCUUGAGAGCAUCUUCGGAUGCAGAGGCGGCAGCAUUCGGUGGCGUGAUAGCGCCAACGUUCUCAACUAUGACACGCAAAACGCGUGCUCCGUUGAAUGGAGUUUAUCAUG	-2.63
GGAUCGUCUCGAUCUAACAAAAAAGACAAAUCCGCCACAAAGCUUGAGAGCAUCUUCGGAUGCAGAGGCGGCAGCCCUCCGUGGGACGAUAGCGCCAACGUUCUCAACUAUUACACGCAGAACGCGUGCUCCGUUGAAUGGAGUUUAUCACG	≤ -4.2
GGAUCGUCUCGAGUUAACAAAAACGACAAAUCUGCCACAAAGCUUGAGAGCAUCUUCGGAUGCAGAGGCGGCAGCAUUCGUUGGCGAGAUAGCGCCAACGUUCUCAACUAUGACACGCAAAACGCGUGCUCCGUUGAAUGGAGUUUAUCAUG	≤ -4.2
GGAUCGUCUCGAUCUAACAAAAAAGACAAAUCUGCCACAAAGCUUGAGAGCAUCUUCGGAUGCAGAGGCGGCAGCCUUCGGUGGCGCGAUAGCGUGAACGUUCUCAACUAUGACACGCAAAACGCGUGCUCCGUUGAAUGGAGUUUAUCAUG	-0.705
GGAUCGUCUCGAUCUAACAAAAAAGACAAAUCUGCCACAAAGAUUGAGAGCCUCUUCGGAUGCAGAGGCGGCAGCCUUCGGUGGAGCGAUAGCGCCAUCGUUCUCAACUAUGCCACGCAAAACGCGUGCUCCGUUGAAUGGAGUUUAUCAUG	≤ -4.2
GGAUCGUCUCGAUCUAACAAAAAAGACAAAUCUGCCACAAAGCUUGAGAGCAUCUUCGGAUGCAGAGGCGGCAGCCUUCGGUGGCGCGAUAGCGCCAACGUUCUCAACUAUGACACGCAAAACGCGUGCUCCGUUGAACGGAGUUUAUCAUG	-3.69
GGAUCGUCUCGAUCUAACAAAAAAGACAAAUCUGCCACAAAGCUUGAGAGCAUCUUCGGAUGCAGAGGCGGCAGCCUUCGGUGGCGCAAUAGCGCCAACGUUCUCAACUAUGACACGCAAAACGCGUGCUCCGUUGAAUGGAGUUUAUCAUG	-4.11
GGAUCGUCUCGAUCUAACAAAAAAGACAAAUCUGGCACAAAGCUUGAGAGCAUCUUCGGAUGCAGAGGCGGCAGCCUUCGGUGGCGCGAUAGCGACAAUGUACUCAACUACGACACGCAAAACGCGUGCUCCGUUGAAUGGAGUUUAUCAUG	≤ -4.2
GGAUCGUCUCGAUCUAACAAAAAAGACAAAUCUGCCACAAAGCUUGAGAGCAUCUACGGAUGCAGAGGCCGCAGCCUUCGGUGGGGCGAUAGCGCCAACGUUCUCAUCUAUGACACGCAAAACGCGUGCUCCGUUGAAUGGAGGUUAUCAUG	≤ -4.2
GGAUCGUCUCGAUCUAACAAAAAAGACAAAUCUGCCACAAAGCUUGAGAGCAUCUUCGUAAGCAGAGGCGGUAGCCUUCGGUGGCGCGGAAGGGCCAACGUUCUCAAUUAUGACACGCAAAUCGCGUGCUCCGUUGAAUGGAGUUUAUCAUG	≤ -4.2
GGAUCUACUCGAUCUAACAAACAAGACCAAUCUGCCACAAAGCUUGAGAGCAUCUUCGGCUGCAGAGGCGGCAGCCUUCGGUGGCGCGAUAACGCCAACGUUCUCAACUAUGACACGCAAAACGCGUGCUCCGUUGAAUGGACUUUGUCAUG	≤ -4.2
GGAUCUACUCGAUCUAACAAAAAAGACAAAUCUGCCACAAAGCUUGAGAGCAUCUUCGGAUGCAGAGGCGGCAGCCUUCGGUGGCGCGAUAGCGCCAACGUUCUCAACUAUGACACGCAAAACGCGUGCUCCGUUGAAUGGAGUUUAUCAUG	-2.18
GGAUCUACUCGAUCUAACUAAAAAGACAAAUCUGCCACAAAGCUUGAGUGCAUCUUCGGAUGCAGAGGCGGCAGCCUUCGGUGGCGCUAUAGCGCCAACUUUCUCAACUAUGACACGCAAAACGCGUGCUCCGUUGAAUGGAGUUUAUCAUG	≤ -4.2
GGAUCGUCUCGAUCUAACAAAAAAGACAAAUCUGCCACAAAGCUAGAGAGCAUCUUUGGAUGCAGACGCGGCAGCCUUCGGUGGCGCGAUAGCGGCAAUGUUCUCAACUAUGACACGCAAAACGCGUGCUCCGUUGAAUGGAGUUUAUCAUG	≤ -4.2
